From US20220288203A1

B1: Humanized Podo447 (humanized_podo447VH_hIgG1C + humanized_podo447VL6_hIgkC) (antibody, V domains shown)
VH: EVQLVESGGGLVQPGRSLRLSCTASGFSLSGYQMNWVRQAPGKGLEWVGYIWSDGGTDYTASVKGRFTISRDGSKSIAYLQMNSLKTEDTAVYYCAREGYWLGAFDPWGQGTSVTVSA
VL: AAQLTQSPSPLSASVGDRVTITCQSSQSVHHKNDLAWYQQKPGKAPKLLIYYTSTLASGVPSRFSGSGSGTDFTLTISSLQPEDFATYYCAGVYEGSSDNRAFGGGTKVEIKR
B2: Podo447, recombinant rabbit/human chimeric anti-podocalyxin antibody (rabbit V genes, human IgG1 and kappa constant regions) (antibody, V domains shown)
VH: QSLEESGGRLVTPGTPLTLTCTASGFSLSGYQMNWVRQAPGKGLEWIGYIWSDGGTDYASWAKGRFTISKTSSTTVDLKMTSLTTEDTATYFCAREGYWLGAFDPWGPGTLVTVSS
VL: AAVLTQTPSPVSAAVGATVSVSCQSSQSVHHKNDLAWFQQKPGQPPKLLIYYTSTLASGVPSRFKGSGSGTQFTLTISDLECDDAATYYCAGVYEGSSDNRAFGGGTEVVVKR

How the values were obtained:
[1] = molecular target: Human podocalyxin as endogenously expressed and displayed by tumor cell lines (A172, SKOV3, MIA PaCa-2, MDA-MB-231) (human) (UniProt O00592); assay: flow cytometry titration on A172 cells, four-parameter fit (Prism)
Human podocalyxin as endogenously expressed and displayed by tumor cell lines (A172, SKOV3, MIA PaCa-2, MDA-MB-231) (human), sequence (O00592 23-558): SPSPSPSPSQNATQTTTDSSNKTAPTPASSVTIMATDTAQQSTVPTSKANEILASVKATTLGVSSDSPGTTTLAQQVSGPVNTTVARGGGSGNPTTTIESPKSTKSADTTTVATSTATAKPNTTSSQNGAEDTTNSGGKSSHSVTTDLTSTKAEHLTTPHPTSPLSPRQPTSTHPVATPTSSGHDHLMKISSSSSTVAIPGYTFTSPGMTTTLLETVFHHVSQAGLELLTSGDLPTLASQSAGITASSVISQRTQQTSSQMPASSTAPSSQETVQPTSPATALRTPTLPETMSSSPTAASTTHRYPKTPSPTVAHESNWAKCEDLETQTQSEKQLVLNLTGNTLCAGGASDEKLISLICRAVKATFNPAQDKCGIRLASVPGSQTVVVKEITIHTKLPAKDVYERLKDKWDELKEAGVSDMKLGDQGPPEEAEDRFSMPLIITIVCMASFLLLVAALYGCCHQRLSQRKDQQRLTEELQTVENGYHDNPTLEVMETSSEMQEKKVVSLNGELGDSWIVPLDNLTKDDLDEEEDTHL

[2] = molecular target: Human podocalyxin as endogenously expressed and displayed by tumor cell lines (A172, SKOV3, MIA PaCa-2, MDA-MB-231) (human) (UniProt O00592); assay: KinExA 3200; titrated A172 cells with constant antibody, 16 h equilibrium, free antibody measured
[3] = molecular target: Human podocalyxin as endogenously expressed and displayed by tumor cell lines (A172, SKOV3, MIA PaCa-2, MDA-MB-231) (human) (UniProt O00592); assay: KinExA 3200; titrated A172 cells with constant antibody, 16 h equilibrium

Row | Binder | Bottom (best-fit) [1] | LogIC50 [1] | Span (best-fit) [1] | Top (best-fit) [1] | Kd [2] [pM] | Epitopes/Cell (epitopes/cell) [3] | Kd High [3] [pM] | Kd Low [3] [pM]
1 | B1 | 1940 | 2.09 | 236000 | 238000 | 14.4 | 233000 | 45.9 | 4.59
2 | B2 | 8630 | 2.28 | 371000 | 380000 | 7.57 | 420000 | 24.9 | 2.3
